Data on one molecule can be found in patent US20240254250A1 (HARPOON THERAPEUTICS, published 2024).

This experiment addresses 253BH10 trispecific protein. Nature of the experiment: affinity measurement, method not stated.

Sequence of 253BH10 trispecific protein (chain, as listed by the source limits assumed, form in doubt): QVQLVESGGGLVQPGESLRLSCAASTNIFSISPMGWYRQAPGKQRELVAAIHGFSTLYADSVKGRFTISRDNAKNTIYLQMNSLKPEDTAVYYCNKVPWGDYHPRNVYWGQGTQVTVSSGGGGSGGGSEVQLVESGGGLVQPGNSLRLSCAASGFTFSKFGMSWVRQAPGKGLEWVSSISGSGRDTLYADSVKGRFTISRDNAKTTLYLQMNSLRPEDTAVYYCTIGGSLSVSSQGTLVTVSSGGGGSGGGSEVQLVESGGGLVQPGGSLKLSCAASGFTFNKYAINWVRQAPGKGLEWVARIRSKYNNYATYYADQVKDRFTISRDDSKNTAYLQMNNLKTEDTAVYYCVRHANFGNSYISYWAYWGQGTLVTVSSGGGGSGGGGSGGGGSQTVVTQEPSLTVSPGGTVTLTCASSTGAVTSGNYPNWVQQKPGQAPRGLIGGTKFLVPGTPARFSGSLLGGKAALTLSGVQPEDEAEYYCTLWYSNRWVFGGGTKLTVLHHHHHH

B1: human BCMA protein (receptor)
chain: MLQMAGQCSQNEYFDSLLHACIPCQLRCSSNTPPLTCQRYCNASVTNSVKGTNA
In the case of B1, binding was put at a Kd of 0.0277 µM.
